Laboratory results as given in US6660492B1, “Chimeric serine proteases” (Boehringer Mannheim GmbH, priority 1997, dated 2003).

Key:
Type in all cases: biochemical
Details in all cases: pH 8.0, RT, 405 nm
[1] = Activity determination and kinetic constants with chromogenic substrate Chromozym PK
Experimental: (§1) The activity of the renatured activated rFXTa proteases was determined with the chromogenic substrates Chromozym® X (N-methoxycarbonyl-D-Nle-Gly-Arg-pNA, Boehringer Mannheim GmbH, Mannheim, Cat. No. 789763), Chromozym® U (Bz-β-Ala-Gly-Arg-pNA, Boehringer Mannheim GmbH, Mannheim, Cat. No.836583), Chromozym® PK (Bz-Pro-Phe-Arg-pNA, Boehringer Mannheim GmbH, Mannheim, Cat. No. 378445) and Chromozym® TH (Tosyl-Gly-Pro-Arg-pNA, Boehringer Mannheim GmbH, Mannheim, Cat. No. 838268) in comparison with recombinant rFXa (rFX-EGF2-AP-CD; preparation and description see PCT/EP97/03027) and native human trypsin (Sigma-Aldrich Chemie GmbH, Deisenhofen, Germany, Cat. No. T6424). Abbreviations: Bz, benzoyl; pNA, p-nitroaniline.
(§2) 10-100 μl sample was filled up to 200 μl with 190-100 μl 50 mmol/l Tris-HCl, 150 mmol/l NaCl, 5 mmol/l CaCl2, 0.1% PEG 8000, pH 8.0 and 20 μl Chromozym® X, U, PK and TH (0.5-40 mmol/l) were added to and measured against a reagent blank value in an ELISA reader at a wavelength of 405 nm and RT. The activity and the kinetic constants were determined from the linear initial slope according to the Michaelis Menten equation.

[2] = Activity determination and kinetic constants with chromogenic substrate Chromozym TH
Experimental: as §1, §2

[3] = Activity determination and kinetic constants with chromogenic substrate Chromozym X
Experimental: as §1, §2

[4] = Activity determination and kinetic constants with chromogenic substrate Chromozym U
Experimental: as §1, §2

Substance: trypsin: native human trypsin (Sigma-Aldrich, Cat. No. T6424)
- Km [1]: 17 µM
- kcat [1]: 38 s⁻¹
- Km [2]: 13 µM
- kcat [2]: 95 s⁻¹
- Km [3]: 43 µM
- kcat [3]: 153 s⁻¹
- Km [4]: 208 µM
- kcat [4]: 225 s⁻¹
